One substance from patent publication US20240174767A1 can be followed below.

For this test, the target named is β2AR wild type (wt) receptor (human) (UniProt P07550). The test can be described thus: cell-based or functional assay.

Take MbNb80^cHopQ (designed binder): the apparent potency shift: IC50 of epinephrine for β2AR-wt alone divided by the IC50^high of epinephrine for β2AR-wt in the presence of MbNb80^cHopQ ([3H]-DHA competition) is 2000 fold and the apparent potency shift: IC50 of isoprotenerol for β2AR-wt divided by the IC50^high of isoprotenerol for β2AR-wt in the presence of MbNb80^cHopQ ([3H]-DHA competition) was determined as 2000 fold.
